In this assay the target is T1, Peptide 2: α-synuclein amino acids 108-117 (10 amino acids) PQEGILEDMP (human, also: biotin, position not given here).
T1 construct: Biotinylated peptide loaded on streptavidin biosensors
T1 peptide: PQEGILEDMP
The assay can be described thus: BLI (ForteBio Octet Red96), biotinylated peptide on streptavidin biosensors, IGP101 at multiple concentrations. Here is the method:
The binding of IGP101 to two biotinylated α-synuclein peptides (SEQ ID NO:10 and SEQ ID NO:11) was determined using the Streptavidin biosensors. Biotinylated peptides were loaded at 5 μg/ml for 700 seconds, 300 seconds for baseline recording and then IGP101 association and dissociation measured for 600 seconds each at multiple concentrations. Double reference sensors were employed in all testing to measure and subtract any observed background signal from nonspecific binding or system noise.
Analysis was performed with ForteBio Data Analysis Software (v8.2). After background subtraction, a 1:1 local kinetic model was fit to the observed association and dissociation curves. Overall KD, Kₒₙ, Koff, and R2 correlation coefficients were determined. Where possible, a global curve fit was also performed for multiple concentrations of the antibody/analyte.
A general note: BLI is a label-free optical method that tracks binding on a fibre tip over time.

Where no end group is shown, it is not given here.

B1: IGP101 (antibody, V domains shown)
VH: EVQLVESGGGLVQPKGTLKLSCAASGFSFNTYAMNWVRQAPGKSLEWVARTLSKSNNYATYYADSVKDRFTISRDDSQSMLSLQMNNLKTEDTAMYYCVGAFAYWGQGTLVTVSA
VL: DIVMTQAAPSVPVTPGESVSISCRSSKSLLHSNGNTYLYWFLQRPGQSPQLLIYRMSNLASGVPDRFSGSGSGTAFTLRISRVEAEDVGVYYCMQHLEFPFTFGAGTKLELK
notes: Mouse monoclonal antibody from hybridoma ATCC PTA-9197; It was tested as whole mouse IgG, captured on anti-mouse IgG biosensors; The constant regions and isotype are not explicitly stated; a g2b constant region primer is mentioned only in illustrative cloning methods; also called IGP101 antibody; mouse monoclonal antibody IGP101
On to B1, for which the binding result is listed as “no binding”.
